In general, Km refers to the substrate concentration at which the rate is half of its maximum. Broadly, the kcat is the number of substrate molecules converted per active site and unit of time at saturation. In general, kcat/Km refers to the second-order rate constant that governs catalysis at low substrate concentration.

Assay in all cases: purified protein
Common to all, as to settings: 0.2 mM NADPH, 50 mM Tris-HCl pH 7.5, 1 mM DTT, 25°C

For one data set, the system named is CC(=O)C(C)O.
Substrate in data set [1]: CC(=O)C(C)O
The source holds these as a separate data set.

Substrate in data set [2]: CC(C)=O
Substrate in data set [3]: CCC(C)=O

Regarding “CaADH (Clostridium autoethanogenum DSM 10061; S199R)”, in the data set with CC(=O)C(C)O, the Km came out at 34 ± 5 mM, the kcat was determined as 95 ± 4 s⁻¹ and the kcat/Km worked out at 2800 M⁻¹ s⁻¹.

B1: CaADH (Clostridium autoethanogenum DSM 10061) (protein)
chain: KGFAMLGINKLGWIEKKNPVPGPYDAIVHPLAVSPCTSDIHTVFEGALGNRENMILGHEAVGEIAEVGSEVKDFKVGDRVIVPCTTPDWRSLEVQAGFQQHSNGMLAGWKFSNFKDGVFADYFHVNDADMNLAILPDEIPLESAVMMTDMMTTGFHGAELADIKMGSSVVVIGIGAVGLMGIAGSKLRGAGRIIGVGSRPVCVETAKFYGATDIVNYKNGDIVEQIMDLTHGKGVDRVIMAGGGAETLAQAVTMVKPGGVISNINYHGSGDTLPIPRVQWGCGMAHKTIRGGLCPGGRLRMEMLRDLVLYKRVDLSKLVTHVFDGAENIEKALLLMKNKPKDLIKSVVTF
As for B1, the Km is on record as 98 ± 10 mM in the data set “purified protein [1]”, 1.0 ± 0.1 mM in “purified protein [2]” and 1.8 ± 0.2 mM in “purified protein [3]”. In addition, the results for the kcat in the data set “purified protein [1]”, in the data set “purified protein [2]” and in the data set “purified protein [3]” were 150 ± 8 s⁻¹, 55 s⁻¹ and 37 s⁻¹, respectively. For the same molecule, the kcat/Km in the data set “purified protein [1]” amounted to 1600 M⁻¹ s⁻¹; in the data set “purified protein [2]” it was 55000 M⁻¹ s⁻¹; in the data set “purified protein [3]”, 21000 M⁻¹ s⁻¹.

The values are drawn from PMC4498498.
